Assay results: paper PMC6113430

Key:
[1] = target: human PD‐L1 (hPD‐L1), soluble, biotinylated (human) (UniProt Q9NZQ7); assay: SPR
[2] = target: human PD‐L2 on mature dendritic cells (human) (UniProt Q9BQ51); assay: flow cytometry on cells
[3] = target: human PD‐L1 on the surface of tumor cells (human) (UniProt Q9NZQ7); assay: flow cytometry on cells
[4] = target: human PD‐L2 (hPD‐L2), soluble (human) (UniProt Q9BQ51); assay: SPR

Substance | Kd [1] [nM] | T1/2 [1] [s] | koff [1] [s⁻¹] | percent reduction of the MFI of anti-PD-L2 Ab (M1H18) at 1.0 × 10^-5 mol/L L5B7 [2] [%] | EC50 [3] [nM] | Kd [4] [nM] | T1/2 [4] [s] | koff [4] [s⁻¹]
L4C11, PD‐1 variant with a single‐site mutation from glycine to valine (G124V) (designed binder) | 93.7 | 8.25 | 0.121 | – | – | – | – | –
hPD‐1 A132I point mutant (domain or fragment) | 9.9 | – | – | – | – | – | – | –
soluble human PD‐1 (hPD‐1) (domain or fragment) | 2650 | – | – | – | 4860 | 1050 | 2.68 | –

Next, values leading:

Kd [1] [nM] | T1/2 [1] [s] | koff [1] [s⁻¹] | percent reduction of the MFI of anti-PD-L2 Ab (M1H18) at 1.0 × 10^-5 mol/L L5B7 [2] [%] | EC50 [3] [nM] | Kd [4] [nM] | T1/2 [4] [s] | koff [4] [s⁻¹] | Substance
0.687 | – | 0.002 | > 40 | 2.9 | 13.7 | 78.1 | 0.0128 | L5B7, high‐affinity PD‐1 variant (G124S, K131Y, A132I) (designed binder)
0.97 | – | – | – | – | – | – | – | hPD‐1 with the combined mutation of G124V and A132I (domain or fragment)
